Measured values published in paper PMC12494293, “Hexokinase 2 is an RNA-binding protein that regulates mRNA translation independently of glycolysis and induces melanoma cell proliferation”.

Target: T1, HK2 Δ16 (UniProt P52789 17-917, del1-16)
T1 sequence: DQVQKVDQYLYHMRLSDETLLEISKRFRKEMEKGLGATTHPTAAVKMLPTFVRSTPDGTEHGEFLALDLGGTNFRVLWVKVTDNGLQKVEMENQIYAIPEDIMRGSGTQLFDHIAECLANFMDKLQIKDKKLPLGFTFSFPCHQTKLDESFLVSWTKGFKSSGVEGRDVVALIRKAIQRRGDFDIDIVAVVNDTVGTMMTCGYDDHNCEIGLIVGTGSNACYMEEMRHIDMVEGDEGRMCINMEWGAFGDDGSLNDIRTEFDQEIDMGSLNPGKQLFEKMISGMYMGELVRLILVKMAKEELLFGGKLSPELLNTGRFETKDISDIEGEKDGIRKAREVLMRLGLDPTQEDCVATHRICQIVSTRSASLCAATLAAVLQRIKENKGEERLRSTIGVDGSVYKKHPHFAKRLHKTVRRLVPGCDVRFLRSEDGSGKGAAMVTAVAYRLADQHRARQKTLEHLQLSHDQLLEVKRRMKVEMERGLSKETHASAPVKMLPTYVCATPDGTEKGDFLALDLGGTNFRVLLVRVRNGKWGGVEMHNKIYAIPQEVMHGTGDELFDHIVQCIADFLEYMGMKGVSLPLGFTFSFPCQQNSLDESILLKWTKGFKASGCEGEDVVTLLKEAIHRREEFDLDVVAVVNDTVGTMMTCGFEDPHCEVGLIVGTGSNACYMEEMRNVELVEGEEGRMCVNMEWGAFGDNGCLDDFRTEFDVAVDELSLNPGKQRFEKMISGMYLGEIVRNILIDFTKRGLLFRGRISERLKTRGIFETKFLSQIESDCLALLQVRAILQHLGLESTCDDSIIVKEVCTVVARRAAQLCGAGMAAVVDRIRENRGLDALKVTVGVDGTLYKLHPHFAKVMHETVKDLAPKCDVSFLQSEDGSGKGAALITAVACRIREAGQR
Assay: competition; 5 µM HK2 Δ16, 25 nM ATTO700 SOX10 SL; almost complete competition; 10 mM Tris-HCl pH 7.5, 1 mM EDTA, 100 mM KCl, 0.1 mM DTT, 5% glycerol, 0.01 mg/mL BSA, 0.125 mg/mL yeast tRNA, 20°C; gel at 4°C
Conditions: protein: recombinant; (pET28b, Ni-NTA); hairpin

AGGACGAGCCCCAGACUGGAGGAGAGGUCC (structured_RNA) [SOX10 SL (unlabeled)]: binds.
